Target: Recombinant HSP with AVI and HIS tag (16 kDa heat shock protein of Mycobacterium tuberculosis) (Mycobacterium tuberculosis) (UniProt P9WMK1)
Experiment: native MS

## Recombinant HSP with AVI and HIS tag (16 kDa heat shock protein of Mycobacterium tuberculosis) (from UniProt P9WMK1 1-144) (natural protein)
  stoichiometry N: 2

Reference: paper PMC3667823
